The target in the test is T1, Human recombinant TNFα (rhTNFα) (human, UniProt P01375 77-233).
T1 construct: Soluble recombinant cytokine added to L929 cells; also called huTNFα; human TNF
The test is described as follows: SPR (BIAcore); antibody captured on a goat anti-huIgG Fc surface, huTNF injected at 25 nM.

T1 sequence (P01375 77-233 limits assumed): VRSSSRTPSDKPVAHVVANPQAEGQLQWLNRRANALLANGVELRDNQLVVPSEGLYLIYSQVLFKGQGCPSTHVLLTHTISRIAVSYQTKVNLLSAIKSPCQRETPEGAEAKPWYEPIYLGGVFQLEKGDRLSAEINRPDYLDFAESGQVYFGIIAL

B1: AB441 (antibody, V domains shown)
VH: EVQLVQSGAEVKKPGASVKVSCKASGYTFANYGIIWVRQAPGQGLEWMGWINTYTGKPTYAQKFQGRVTMTTDTSTSTAYMELSSLRSEDTAVYYCARKLFTTMDVTDNAMDYWGQGTTVTVSS
VL: DIQMTQSPSSLSASVGDRVTITCRASQDISQYLNWYQQKPGKAPKLLIYYTSRLQSGVPSRFSGSGSGTDFTLTISSLQPEDFATYFCQQGNTWPPTFGQGTKLEIKR
For B1, the Stoichiometry amounted to 2.

The record behind these values is patent US20170218091A1 (AbbVie / Abbott, published 2017).
